In patent US20150197559A1 (University of California, published 2015):

Key:
BoNT/B1 [1] = molecular target: T1, BoNT/B1 (Clostridium botulinum, UniProt P10844 2-1291); experiment: flow cytometry, yeast-displayed scFv, soluble toxin
T1 sequence: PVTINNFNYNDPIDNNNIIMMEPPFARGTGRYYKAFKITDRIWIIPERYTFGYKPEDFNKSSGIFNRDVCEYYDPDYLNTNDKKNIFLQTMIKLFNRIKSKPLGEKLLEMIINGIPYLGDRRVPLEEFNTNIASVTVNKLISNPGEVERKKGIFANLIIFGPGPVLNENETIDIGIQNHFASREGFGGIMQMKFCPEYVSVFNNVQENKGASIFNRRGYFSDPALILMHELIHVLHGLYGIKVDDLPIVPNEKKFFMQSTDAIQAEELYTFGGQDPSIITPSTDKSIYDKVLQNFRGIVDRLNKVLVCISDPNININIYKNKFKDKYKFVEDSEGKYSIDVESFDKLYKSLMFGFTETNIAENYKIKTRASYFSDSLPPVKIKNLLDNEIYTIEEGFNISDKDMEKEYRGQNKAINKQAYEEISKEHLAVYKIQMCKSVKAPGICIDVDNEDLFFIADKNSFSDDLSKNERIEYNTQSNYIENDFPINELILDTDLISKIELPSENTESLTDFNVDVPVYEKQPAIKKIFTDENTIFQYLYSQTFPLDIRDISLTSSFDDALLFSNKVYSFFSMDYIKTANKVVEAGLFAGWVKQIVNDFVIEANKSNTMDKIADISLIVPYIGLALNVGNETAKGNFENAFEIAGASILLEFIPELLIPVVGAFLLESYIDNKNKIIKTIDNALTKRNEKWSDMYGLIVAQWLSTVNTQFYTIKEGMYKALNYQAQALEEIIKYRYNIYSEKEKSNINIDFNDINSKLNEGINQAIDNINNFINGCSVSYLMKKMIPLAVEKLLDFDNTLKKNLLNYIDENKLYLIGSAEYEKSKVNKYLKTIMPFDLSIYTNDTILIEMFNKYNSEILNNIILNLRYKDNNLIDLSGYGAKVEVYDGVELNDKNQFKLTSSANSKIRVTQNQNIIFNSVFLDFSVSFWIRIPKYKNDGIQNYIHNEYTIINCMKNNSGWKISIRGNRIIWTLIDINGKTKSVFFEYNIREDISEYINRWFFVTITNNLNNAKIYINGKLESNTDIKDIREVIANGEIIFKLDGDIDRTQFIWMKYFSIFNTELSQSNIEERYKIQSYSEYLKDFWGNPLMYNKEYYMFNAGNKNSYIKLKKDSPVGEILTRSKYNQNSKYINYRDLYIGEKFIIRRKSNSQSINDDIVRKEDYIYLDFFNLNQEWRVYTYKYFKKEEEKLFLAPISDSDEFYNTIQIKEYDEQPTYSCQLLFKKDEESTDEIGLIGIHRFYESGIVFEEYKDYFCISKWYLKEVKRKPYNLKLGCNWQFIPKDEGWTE

BoNT/B1 [2] = molecular target: T1, BoNT/B1; experiment: as above; remark: listed apart in the source
BoNT/B1 [3] = molecular target: T1, BoNT/B1; experiment: KinExA flow fluorimetry, IgG in solution
BoNT/B1 [4] = molecular target: T1, BoNT/B1
BoNT/B1 [5] = molecular target: T1, BoNT/B1; experiment: flow cytometry, yeast-displayed scFv, soluble toxin; remark: listed apart in the source
BoNT/B1 [6] = molecular target: T1, BoNT/B1; experiment: flow cytometry, yeast-displayed Fab, soluble toxin
BoNT/B1 [7] = molecular target: T1, BoNT/B1; experiment: yeast-displayed Fab against parental B6 scFv, flow cytometry

B1: 1B18 scFv (scFv, V domains shown)
VH: EVQLVQSGGGLVQPGGSRRLSCAASGFYFNAYWMTWVRQAPGKGLEWVANINLDGTEIYYLDSVKGRFTVSRDNVKNSVFLQMSSLRVEDTAVYFCARLEWGGRNGWVSPWGQGTLVTVSS
VL: DVVMTQSPSSVSASVGDRVTITCRASQSISSYLNWYQQRPGKAPKLLIFAASSLQSAVPSRFSGSGSGTDFTLTISSLQPEDFATYYCQQSYSTPPTFGQGTKVEIKR
BoNT/B1 [1]
  Kd: 7.3 nM
BoNT/B1 [2]
  Kd: 7.3 nM

B2: 1B18 IgG (antibody, V domains shown)
VH: B1 VH
VL: B1 VL
BoNT/B1 [3]
  Kd: 0.816 nM

B3: 1B10 scFv (scFv)
scFv: QVQLVESGGGVVQPGRSLRLSCAASGFTFSHYGMHWVRQSPGKGLEWVAVIWYDGRNPYYAASVKGRFTISRDNDKNTLYLQMNSLRAEDTAVYYCVKDLTRFHDTTFGVFEMWGPGTTVTVSSGGGGSGGGGSGGGGSEIVLTQSPSSLSASVGDRITITCRASQSISSWLAWYQQKPGKAPMVLIYKASSLENGVPSRFSGSGSGTEFTLTISSLQPDDFATYYCQQYSTYSRTFGQGTKVEIK
BoNT/B1 [2]
  Kd: 11.2 nM

B4: 1B22 scFv (scFv)
scFv: QVQLQESGSRLVKPSQTLSLTCGVSGGSISSSSYSWSWIRQTPGKGLEWIGYIYHSGSTYYNPSLKSRVTMSVDKSRNQFSLNMSSVTAADTAVYYCARTAFYYENTGPIRCYLDFWGQGTLVTVSSGGGGSGGGGSGGGGSDIQMTQSPSTLSASIGDRVTISCRASQSIQSWLAWYQQRPGEAPKLLIYSASTLQTGVPSRFSGSGSGTDFTLTISSLQPEDFATYYCQQYNSYPLTFGQGTKLEIK
BoNT/B1 [1]
  Kd: 0.515 nM
BoNT/B1 [2]
  Kd: 0.52 nM

B5: 1B22 IgG (antibody, V domains shown)
VH: QVQLQESGSRLVKPSQTLSLTCGVSGGSISSSSYSWSWIRQTPGKGLEWIGYIYHSGSTYYNPSLKSRVTMSVDKSRNQFSLNMSSVTAADTAVYYCARTAFYYENTGPIRCYLDFWGQGTLVTVSS
VL: DIQMTQSPSTLSASIGDRVTISCRASQSIQSWLAWYQQRPGEAPKLLIYSASTLQTGVPSRFSGSGSGTDFTLTISSLQPEDFATYYCQQYNSYPLTFGQGTKLEIK
BoNT/B1 [3]
  Kd: 0.335 nM
BoNT/B1 [4]
  fold increase in affinity, IgG against parental scFv: 1.5 to 25 fold

B6: 2B23 scFv (scFv)
scFv: EVQLLESGGGLVQPGGSLRLSCAASGFTFSNYPMSWVRQAPGKGLAWVSSLTASGDNTFYADSVKGRFTISRDNSNNTLYLQMHSLRAEDTAVYYCAKALVGRYDISTGYYRPVMDSWGQGTLVTVSSGGGGSGGGGSGGGGSDIQMTQSPPSLSASVGDRVTITCRTSQGFTSALAWYQQKPGEPPKLLIYDASKLESGVPSRFSGSGSGTNFALTISSLQPEDFATYFCQQSNSYPLTFGGGTKVEIK
BoNT/B1 [1]
  Kd: 0.079 nM
BoNT/B1 [2]
  Kd: 0.08 nM

B7: 2B23 IgG (antibody, V domains shown)
VH: EVQLLESGGGLVQPGGSLRLSCAASGFTFSNYPMSWVRQAPGKGLAWVSSLTASGDNTFYADSVKGRFTISRDNSNNTLYLQMHSLRAEDTAVYYCAKALVGRYDISTGYYRPVMDSWGQGTLVTVSS
VL: DIQMTQSPPSLSASVGDRVTITCRTSQGFTSALAWYQQKPGEPPKLLIYDASKLESGVPSRFSGSGSGTNFALTISSLQPEDFATYFCQQSNSYPLTFGGGTKVEIKR
BoNT/B1 [3]
  Kd: 0.0382 nM

B8: B11E8 scFv (scFv)
scFv: EVQLVQSGGGVVQPGRSLRLSCAASGFIFRTYGMHWVRQAPGKGLEWVAFVSSDGNNKFYSDSVKGRFTISRDNAKNTLYLQMNSLETEDTAMYYCAKDRYPIDCSGGSCFSYGMDVWGQGTTVTVSSGGGGSGGGGSGGGGSEIVLTQSPATLSVSPGERATLSCRASQSVSKFLAWYQQKRGQAPRLLIYGASTRATGIPARFSGSGSGTEFALTISSLQSEDFADYYCQQYDNWPITFGQGTRLEIK
BoNT/B1 [5]
  Kd: 0.193 nM

B9: B6.C12 Fab (Fab, V domains shown)
VH: QVQLVQSGAEVKKPGESLVISCKASGDKDTFTSFWIAWVRQMPGKGLEWMGIIYAGDSDTRYSPSFQGHVNISVDRSTNTAYLQWSSLKASDTAMYYCARHDSRYKYFYFGMDVWGQGTTVTVSS
VL: DIVMTQSPSSLSASVGDRVTITCRASQSISSYLNWYQQKPGKAPKLLIYAASSLQSGVPSRFSGSGSGTDFTLTISSLQPEAFATYYCQQSYTAPCTFGQGTKLEIK
BoNT/B1 [6]
  Kd: 0.405 nM
BoNT/B1 [7]
  KD wild type/KD matured: 7 fold

B10: B6.D2 Fab (Fab, V domains shown)
VH: B9 VH
VL: DVVMTQSPCLPCLHLIGDRVTITCRASQSIRDYLSWYQQEPGKAPKLLIYSASSLQSGVPSRFSGSGSGTDFTLTITNLQPEDFATYYCLEKYSFPRCTFGQGTKLDIKR
BoNT/B1 [6]
  Kd: 0.254 nM
BoNT/B1 [7]
  KD wild type/KD matured: 11 fold

B11: 2B24 scFv (scFv)
scFv: QVQLVESGGGVVQPGRSLRLSCAASGLTFSVYGMHWVRQAPGKGLEWVAVISHTGSEEYYADSVKGRFSISRDNSNNTLFLQMNSLRPEDTAVYYCVKDGPMAAIPFYYFDFWGQGTLVTVSSGGGGSGGGGSGGGGSQSVVTQPPSVSAAPGQKVTISCSGSSSNIGNNYVSWYQQLPGTAPKLLIYDNNKRPSGIPDRFSGSKSGTSATLGITGLQTGDEADYYCGTWDSSLSAGVFGGGTKLTVL
BoNT/B1 [2]
  Kd: 0.79 nM

B12: 2B25 scFv (scFv)
scFv: QVQLQESGPGLVKPSQTLSLSCSVSGASITSGTFYWSWIRQHPGKDLEWIGYIYYSGTTYYNPSLKSRVTLSVDTSKNQFSLKVTSLTAADTAVYHCARGVPIYDSSGTYRGTYFDYWGQGTLVTVSSGGGGSGGGGSGGGGSQPGLTQPPSASGTPGQRVTISCSGSSSNVGSNTVNWYQQLPGTAPKLLIYRNDQRPSGVPDRFSGSKSGASASLAISGLRSEDEADYYCAAWDDSLNGLLFGGGTQLTVL
BoNT/B1 [2]
  Kd: 0.95 nM

B13: 4B6 scFv (scFv)
scFv: QVQLVQSGAEVKKPGESLVISCKASGDKDTFTSFWIAWVRQMPGKGLEWMGIIYAGDSDTRYSPSFQGHVNISVDRSTNTAYLQWSSLKASDTAMYYCARHDSRYKYFYFGMDVWGQGTTVTVSSGGGGSGGGGSGGGGSDVVMTQSPSSLSASVGDRITITCQAGQDISNFLNWYQQKPGKAPKLLIRDASNLETGVPSRFSGGGSGTHFTFTISSLHPEDIATYFCQQYDNLPYTFGQGTKLEIK
BoNT/B1 [2]
  Kd: 2.7 nM

B14: 2B30 scFv (scFv)
scFv: EVQLVESGGGVVQPGRSLRLSCAASGFTFRRNAIHWVRQAPGKGLEWVAVISYDGVNKYYAASVKGRFAISRDNAKNTLFLQMNSLRPEDSAIYYCARDVSEYGDYVGHFDYWGQGTLVTVSSGGGGSGGGGSGGGGSSYELMQLPSASGTPGQRVSISCSGSSSNIGSNPVNWYQQLPGTAPKLLIYSNNHRPSGVPDRFSGSKSGTSASLAISGLQSEDEADYYCAAWDGSLNGHVVFGGGTKLTVL
BoNT/B1 [2]
  Kd: 0.37 nM

B15: 4B7 scFv (scFv)
scFv: QVQLQQSGPGLVKPSQTLSLTCSVSGGSINSDGSYWSWVRQHPGKGLEWIGYIYYSGTTYFNPSLKSRLTMSVDTSKNQFSLKMTSVTAADTAVYYCARMSGSRSYSQYYFDSWGQGTLVTVSSGGGGSGGGGSGGGGSDIQMTQSPSSLSASVGDRVTITCRASQSISSYLNWYQQKPGTAPKLLISDASTLQSGVPSRFSGSGSGTEFTLTISNLQPEDFATYYCQQFNSYVWTFGQGTKLEIK
BoNT/B1 [2]
  Kd: 29.4 nM
